One molecule from patent publication US20190315842A1 (DUKE UNIVERSITY, published 2019) can be followed below.

Where no end group is shown, it is not given here. The star is where a group is joined. Biotin = O=C1N[C@H]2[C@H](CS[C@H]2CCCCC(=O)*)N1

Assay [1] addresses systemic lupus erythematosus autoantigen SSA. In words: AtheNA Multi-Lyte ANA, Ab at 16.7 ug/ml.
The target in assay [2] is T1, Sm (sphingomyelin).
T1 construct: in an ANA panel of nuclear antigens Sm is usually the Smith ribonucleoprotein antigen; Kept, but see recheck
Put plainly: AtheNA Multi-Lyte ANA, Ab at 16.7 ug/ml.

The target in assay [3] is ribonucleoprotein (RNP). In words: AtheNA Multi-Lyte ANA, Ab at 16.7 ug/ml.
Assay [4] addresses systemic lupus erythematosus autoantigen SSA. Put plainly: AtheNA Multi-Lyte ANA, Ab at 8.35 ug/ml.
Assay [5] concerns the target T1, Sm (sphingomyelin). Put plainly: AtheNA Multi-Lyte ANA, Ab at 8.35 ug/ml.
Assay [6] addresses ribonucleoprotein (RNP). Put plainly: AtheNA Multi-Lyte ANA, Ab at 8.35 ug/ml.
Assay [7] deals with systemic lupus erythematosus autoantigen SSA. In words: AtheNA Multi-Lyte ANA, Ab at 2.088 ug/ml.
For assay [8], the target named is T1, Sm (sphingomyelin). In words: AtheNA Multi-Lyte ANA, Ab at 2.088 ug/ml.
The target of assay [9] is ribonucleoprotein (RNP). Put plainly: AtheNA Multi-Lyte ANA, Ab at 2.088 ug/ml.
In assay [10] the target is systemic lupus erythematosus autoantigen SSA. In words: AtheNA Multi-Lyte ANA, Ab at 4.175 ug/ml.
For assay [11], the target named is T1, Sm (sphingomyelin). In words: AtheNA Multi-Lyte ANA, Ab at 4.175 ug/ml.
Assay [12] deals with ribonucleoprotein (RNP). Put plainly: AtheNA Multi-Lyte ANA, Ab at 4.175 ug/ml.
For assay [13], the target named is T2, 15-mer peptide GPPPPIDNGDITSFP (SEQ ID NO: 114) (human).
T2 construct: Immobilized for SPR; also called parent peptide
T2 peptide: GPPPPIDNGDITSFP
Put plainly: assay and antigen not given; Example 10, epitope mapping on the 15-mer peptide.

For assay [14], the target named is T3, GPPPPIDNGDITSFP(GGGK-biotin).
T3 construct: also called biotinylated 15-mer peptide; biotinylated 19-mer
T3 peptide: GPPPPIDNGDITSFPGGGK(Biotin)
Put plainly: ELISA: biotinylated peptide captured on immobilized Neutravidin, antibody at 0.5 µg/ml, anti-human IgG-HRP/ABTS, OD 405 nm. (An ELISA detects its analyte on a solid surface through an enzyme-linked reagent.)

In assay [15] the target is T4, reduced form of Complement Factor H (CFH), treated with TCEP (human, UniProt P08603 19-1231, disulfides reduced with 10 mM TCEP).
T4 construct: also called reduced CFH; reduced form of CFH
T4 sequence (P08603 19-1231 limits assumed): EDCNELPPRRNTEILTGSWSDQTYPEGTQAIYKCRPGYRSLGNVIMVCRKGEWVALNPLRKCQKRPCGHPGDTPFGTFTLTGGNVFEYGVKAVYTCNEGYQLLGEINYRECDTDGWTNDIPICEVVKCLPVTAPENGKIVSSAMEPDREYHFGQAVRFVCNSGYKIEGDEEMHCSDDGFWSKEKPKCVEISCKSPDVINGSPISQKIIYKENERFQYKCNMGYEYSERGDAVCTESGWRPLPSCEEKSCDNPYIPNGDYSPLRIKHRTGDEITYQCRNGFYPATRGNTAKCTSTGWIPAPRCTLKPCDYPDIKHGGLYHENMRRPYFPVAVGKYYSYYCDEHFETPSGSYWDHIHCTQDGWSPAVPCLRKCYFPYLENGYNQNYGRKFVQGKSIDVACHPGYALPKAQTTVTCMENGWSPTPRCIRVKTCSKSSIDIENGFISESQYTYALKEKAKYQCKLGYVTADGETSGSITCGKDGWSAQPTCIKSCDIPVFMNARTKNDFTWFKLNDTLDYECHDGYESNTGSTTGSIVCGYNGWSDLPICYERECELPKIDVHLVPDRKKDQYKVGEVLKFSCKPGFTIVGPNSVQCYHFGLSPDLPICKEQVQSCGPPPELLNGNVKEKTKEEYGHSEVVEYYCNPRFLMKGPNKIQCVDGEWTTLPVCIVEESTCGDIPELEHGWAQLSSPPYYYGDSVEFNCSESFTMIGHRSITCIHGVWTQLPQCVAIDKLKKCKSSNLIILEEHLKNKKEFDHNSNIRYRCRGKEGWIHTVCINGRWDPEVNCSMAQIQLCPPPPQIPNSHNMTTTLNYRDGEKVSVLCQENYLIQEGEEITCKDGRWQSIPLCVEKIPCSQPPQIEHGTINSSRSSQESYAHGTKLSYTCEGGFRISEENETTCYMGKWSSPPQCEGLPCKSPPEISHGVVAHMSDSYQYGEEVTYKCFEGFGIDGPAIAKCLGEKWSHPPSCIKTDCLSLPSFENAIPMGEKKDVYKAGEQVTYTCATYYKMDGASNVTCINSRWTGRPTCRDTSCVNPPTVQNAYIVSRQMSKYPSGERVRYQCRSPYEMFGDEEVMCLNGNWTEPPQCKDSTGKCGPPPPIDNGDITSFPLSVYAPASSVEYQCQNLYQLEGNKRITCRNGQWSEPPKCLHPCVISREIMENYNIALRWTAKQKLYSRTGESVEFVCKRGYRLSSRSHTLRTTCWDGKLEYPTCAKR
In words: immunoblot, SDS-PAGE under reducing conditions, antibody at 0.5 µg/ml, anti-human IgG-HRP, chemiluminescence; lane numbers as in Table 10. For orientation: A western blot detects proteins with antibodies after separation by electrophoresis.

Assay [16] deals with T5, Complement Factor H (CFH) protein, full-length (human, UniProt P08603 19-1231).
T5 construct: also called full-length CFH; native CFH
T5 sequence (P08603 19-1231 limits assumed): as above
Put plainly: immunoblot, SDS-PAGE under non-reducing conditions, antibody at 0.5 µg/ml, anti-human IgG-HRP, chemiluminescence; lane numbers as in Table 10.

B1: Ab7979 (antibody, IgG1, V domains shown)
VH: LVESGGGVVQPGKSLRLSCVASGFTFSTYGMHWVRQAPGKGLEWVAVMSFDGKTKYYADSVKGRFTISRDNPKNTLYLQMNSLRSEDTAVYYCAKGGAAAAVFDSWGQGILLTVSS
VL: MTQSPNSLAVSLGGRATINCKTSQSILYRSNNKNYLAWYQHKPGQPPKLLIYWASTRESRVPDRFSGSGSRTDFTLTISGLQAEDVAVYYCQQYYNPPWTFGQGTKVEIK
notes: Recombinant human antibody with IgG1 heavy chain backbone and kappa light chain constant; they begin at LVESGGG and MTQSP; also called Ab7979/239i; mAb 7979
As to B1, the AtheNA signal in assay [1] amounted to 144; with Sm (sphingomyelin) [2], 92; with ribonucleoprotein (RNP) [3] it was 40; in [4], 146; in the assay with Sm (sphingomyelin) [5] it was 77; with ribonucleoprotein (RNP) [6], 38. The AtheNA signal in [7] stood at 119; with Sm (sphingomyelin) [8], 45; with ribonucleoprotein (RNP) [9] it was 29; in assay [10], 140; with Sm (sphingomyelin) [11] it was 63; with ribonucleoprotein (RNP) [12] it was 36. The response in assay [13] was half-maximal at 0.0122 µg/mL (EC50). Further, the binding result in [14], in assay [15] and in assay [16] was “binds” each time.
